In patent US20260285971 (published 2026):
Numbering of substitutions follows the chain as printed.

T1: human GPRC5D (human)
T1 chain: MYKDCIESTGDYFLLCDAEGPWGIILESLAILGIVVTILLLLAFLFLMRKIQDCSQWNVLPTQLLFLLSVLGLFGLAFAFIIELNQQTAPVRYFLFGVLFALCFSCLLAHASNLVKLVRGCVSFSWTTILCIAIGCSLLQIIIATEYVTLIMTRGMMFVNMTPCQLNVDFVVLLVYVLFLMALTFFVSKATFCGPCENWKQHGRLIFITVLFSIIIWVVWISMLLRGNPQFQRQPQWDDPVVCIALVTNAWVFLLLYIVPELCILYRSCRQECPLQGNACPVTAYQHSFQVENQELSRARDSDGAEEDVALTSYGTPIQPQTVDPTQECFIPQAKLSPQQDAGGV

B1: 5F11-hIgG1 (antibody, V domains shown)
VH: EVQLVESGGGLVQPGRSLKLSCAASGFSFSNYGMAWVRQAATKGLEWVASISTGGGNTYYRDSVKGRFIVSRDNAKNTQYLQMDSLRSEDTATYYCTRHDRGGLYWGQGVMVTVSS
VL: DIVMTQAPLSVSVTPGESASISCRSSKSLLHSNGITYVYWYFQKPGKSPQVLIYRMSNLASGVPDRFSGSGSETDFTLKISRVEAEDVGIYHCGQLLENPYTFGAGTELELK
B2: Lab05-huFc (antibody, V domains shown)
VH: QVQLVESGGGLVQPGGSLRLSCAASGILVSAYVMAWYRQPPGKQRDLVARLSTDGRTTYADSVKGRFTISKDNAKSTLYLQMNTLKSEDTAVYYCYAERSRGHWGQGTQVTVSS
B3: JNJ7564-hIgG1 (antibody, V domains shown)
VH: QVQLVQSGAEVKKPGASVKVSCKASGYSFTGYTMNWVRQAPGQGLEWMGLINPYNSDTNYAQKLQGRVTMTTDTSTSTAYMELRSLRSDDTAVYYCARVALRVALDYWGQGTLVTVSS
VL: DIQMTQSPSSLSASVGDRVTITCKASQNVATHVGWYQQKPGKAPKRLIYSASYRYSGVPSRFSGSGSGTEFTLTISNLQPEDFATYYCQQYNRYPYTFGQGTKLEIK
B4: HAB06-H5 (designed binder)
chain: EVQLVESGGGLVQPGGSLRLSCAASGFTFSSAWMYWFRQAPGKGLEWVSHIDPRGGSTYYADSVKGRFTISRDNAKNTLYLQMNSLRAEDTAVYYCAKDLRGLGRGQGTQVTVSS
B5: Lab01-huFc (antibody, V domains shown)
VH: EVQLQASGGGSVQAGGSRRLSCVASGYAGGIAYMAWFRQTPGKGREGVALIATSGTTSYANSVKGRFTIFRDGADNTVYLEMSSLKPEDTATYYCAAKSRLGWPGLETSQFKYWGQGTQVTVSS
B6: Lab06-huFc (designed binder)
chain: B4 chain with E1Q, A23T, N84R, R87K, A88S
B7: MCARH109-scFv-huFc (antibody, V domains shown)
VH: QVQLVESGGGLVHPGGSLRLSCAASGFTFRSHSMNWVRQAPGKGLEWVSSISSDSTYTYYADSVKGRFTISRDNAKNSLYLQMNSLRAEDTAVYYCARSGGQWKYYDYWGQGTLVTVSS
VL: SSELTQDPAVSVALGQTVRITCQGDSLRSYYASWYQQKPGQAPVLVIYGKNNRPSGIPDRFSGSSSGNTASLTITGAQAEDEADYYCNSRDSSGNPPVVFGGGTKLTVL
B8: HAB05-H3 (antibody, V domains shown)
VH: B2 VH with Q1E, P40A, D46V, A49S, T84S, K86R, S87A, Q109M
B9: HAB01-H1 (antibody, V domains shown)
VH: EVQLVESGGGLVQPGGSLRLSCAASGYAGGIAYMAWFRQAPGKGREGVANIATSGTTYYVDSVKGRFTISRDGAKNSLYLQMNSLRAEDTAVYYCAAKSRLGWPGLETSQFKYWGQGTMVTVSS
B10: HAB01-H6 (antibody, V domains shown)
VH: B9 VH with E6A, N50L, Y58S, L78V
B11: HAB03-H9 (antibody, V domains shown)
VH: EVQLVESGGGLVQPGGSLRLSCAASGDTASCIGWFRQAPGKGREGVAAIYTGLGNTYYANSAKGRFTISQDNAKNSVYLQMNSLRAEDTAVYYCAAGGILGRFCSRYFGQGTMVTVSS
B12: HAB01-H3 (antibody, V domains shown)
VH: B9 VH with N50L, Y58S
B13: HAB03-H5 (antibody, V domains shown)
VH: B11 VH with S30N
B14: HAB01-H8 (antibody, V domains shown)
VH: B9 VH with N50L, Y58S, K75D, L78V
B15: HAB06-H1 (designed binder)
chain: B4 chain with A75S, Q110M
B16: HAB01-H7 (antibody, V domains shown)
VH: B9 VH with N50L, Y58S, V60A, L78V
B17: HAB05-H2 (antibody, V domains shown)
VH: B2 VH with Q1E, P40A, D46V, A49S, S76N, T84S, K86R, S87A, Q109M

How the values were obtained:
[1] = biological target: T1, human GPRC5D; assay: FACS RPMI-8226
[2] = biological target: T1, human GPRC5D; assay: FACS NCI-H929
[3] = biological target: T1, human GPRC5D; assay: ELISA
[4] = biological target: T1, human GPRC5D; assay: FACS RPMI-8226
[5] = biological target: T1, human GPRC5D; assay: FACS RPMI-8226
[6] = biological target: T1, human GPRC5D; assay: FACS molp-8
[7] = biological target: T1, human GPRC5D; assay: FACS RPMI-8226
[8] = biological target: T1, human GPRC5D; assay: FACS NCI-H929
[9] = biological target: T1, human GPRC5D; assay: FACS molp-8
[10] = biological target: T1, human GPRC5D; assay: ELISA
[11] = biological target: T1, human GPRC5D; assay: FACS NCI-H929
[12] = biological target: T1, human GPRC5D; assay: ELISA
[13] = biological target: T1, human GPRC5D; assay: FACS NCI-H929
[14] = biological target: T1, human GPRC5D; assay: FACS molp-8
[15] = biological target: T1, human GPRC5D; assay: ELISA
[16] = biological target: T1, human GPRC5D; assay: FACS molp-8
[17] = biological target: T1, human GPRC5D; assay: FACS NCI-H929
[18] = biological target: T1, human GPRC5D; assay: FACS molp-8
[19] = biological target: T1, human GPRC5D; assay: FACS CHOK1-human GPRC5D
[20] = biological target: T1, human GPRC5D; assay: FACS RPMI-8226

Binder	EC50 [4]	EC50 [8]	EC50 [10]	EC50 [16]	EC50 [17]	EC50 [18]	EC50 [19]	EC50 [20]	further results
B1	0.0265 µM	0.00305 µM	0.0498 nM	0.00292 µM					EC50 [1]: 0.0187 µM; EC50 [2]: 0.0029 µM; EC50 [3]: 0.0295 nM; EC50 [5]: 0.00707 µM; EC50 [6]: 0.00564 µM; EC50 [7]: 0.0121 µM; EC50 [9]: 0.0126 µM; EC50 [11]: 0.00196 µM; EC50 [12]: 0.0371 nM; EC50 [13]: 0.00269 µM; EC50 [14]: 0.00368 µM; EC50 [15]: 0.0659 nM
B2					0.111 nM	0.0616 nM	0.000279 µM	0.0316 µM	
B3	~5.46 µM	0.0179 µM	0.0379 nM	0.0269 µM					EC50 [1]: ~1360 µM; EC50 [2]: 0.0256 µM; EC50 [3]: 0.028 nM; EC50 [5]: 0.0734 µM; EC50 [6]: 0.0413 µM; EC50 [7]: ~635 µM; EC50 [9]: 0.0459 µM; EC50 [11]: 0.00697 µM; EC50 [12]: 0.0211 nM; EC50 [13]: 0.00988 µM; EC50 [14]: 0.0344 µM; EC50 [15]: 0.0559 nM
B4					0.38 nM	0.178 nM	0.000241 µM	0.000387 µM	
B5	0.00208 µM	0.000653 µM	0.0182 nM	0.000625 µM					
B6					0.273 nM	0.132 nM	0.00022 µM	0.000261 µM	
B7					2.45 nM	3.23 nM	0.000286 µM		
B8					0.0861 nM	0.0433 nM	0.000249 µM	0.00012 µM	
B9	0.103 µM	0.00163 µM	0.023 nM	0.0033 µM					
B10	0.0257 µM	0.000666 µM	0.0178 nM	0.000755 µM					
B11									EC50 [1]: 0.000777 µM; EC50 [2]: 0.000896 µM; EC50 [14]: 0.000849 µM; EC50 [15]: 0.0326 nM
B12	0.036 µM	0.00102 µM	0.0259 nM	0.00137 µM					
B13									EC50 [1]: 0.0415 µM; EC50 [2]: 0.000892 µM; EC50 [14]: 0.000738 µM; EC50 [15]: 0.0353 nM
B14	0.00177 µM	0.00141 µM	0.0336 nM	0.00124 µM					
B15					0.166 nM	0.14 nM	0.000324 µM	0.000406 µM	
B16	0.0037 µM	0.000916 µM	0.0264 nM	0.00076 µM					
B17					0.202 nM	0.0839 nM	0.000514 µM	0.000141 µM	
